Entries after “also recorded” stand apart in the source; their conditions may differ.
How the values were obtained:
[1] = tested on: IL-6; experiment: IL-6 expression in PBECs (ELISA, RT-PCR); type: cell-based, human; details: ML-1 10 and 100 ng/ml, 24 and 48 hours, ELISA
Description: FIG. 5. Analysis of IL-6 (FIG. 5A) and IL-8 (FIG. 5B) expression in primary bronchial epithelial cells (PBECs) and human umbilical vein endothelial cells (HUVECs) stimulated by ML-1. The IL-6 and IL-8 protein release in the supernatant was determined by ELISA as described in Example 8. The results were expressed as mean+SD (n=6). *p<0.05 was considered significant vs control.
FIG. 7A-7D. Effect of PD98059 on IL-6 (FIG. 7A) and IL-8 (FIG. 7B) protein production in PBECs and HUVECs. The cells were preincubated with varying concentrations of PD98059, SB202190, or DMSO vehicle control for 1 hour, followed by stimulation with ML-1 (100 ng/ml) for 24 hours. The results are expressed as the mean+SD (n=6). *P<0.05 when compared to cultures without the addition of PD98059. FIGS. 7C and 7D. Semi-quantitative analysis of gene expression for IL-6 (FIG. 7C) and IL-8 (FIG. 7D) by RT-PCR. The cells were preincubated as described above and treated with ML-1 for 4 hours. RT-PCR was performed as described in Example 8. The results shown are representative of three separate experiments.
Primary bronchial epithelial cells (PBECs) were purchased from Clonetics (San Diego, Calif.) and cultured in bronchial epithelial basal medium (Clonetics) containing 0.5 ng/ml human recombinant epidermal growth factor (EGF), 52 mg/ml bovine pituitary extract, 0.1 mg/ml retinoic acid, 0.5 mg/ml hydrocortisone, 5 mg/ml insulin, 10 mg/ml transferrin, 0.5 mg/ml epinephrine, 6.5 ng/ml triiodothyronine, […] gentamicin, and 50 pg/ml amphotericin-B (Clonetics). […]
The amplification reaction was performed for 23 cycles with denaturation at 94° C. for 45 seconds, annealing at 56° C. for 45 seconds, and extension at 72° C. for 45 seconds. PCR products were detected by ethidium bromide staining and normalized by the intensity of an amplified housekeeping gene, G3PDH (see above). […] IL-6 and IL-8 protein levels in the collected supernatants were determined with a commercially available ELISA kit (Biosource, Camarillo, Calif.) according to the manufacturer's instructions.

[2] = tested on: IL-8; experiment: IL-8 expression in NHBE cells (RT-PCR and ELISA); type: cell-based, human; details: 100 ng/ml
From the text: FIGS. 3A-3C. FIG. 3A, Expression of ML-1 protein in COS-7 cells. COS-7 cells were transfected with a gene construct containing full-length ML-1 sequence and a tag sequence encoding poly (His) peptide. ML-1-His fusion proteins were purified from supernatants of the transfected cells using a His affinity column, run on an 8-16% SDS-polyacrylamide gel under reducing conditions, and analyzed by Western Blot using anti-His monoclonal antibody. Lane 1 represents a mock-transfected sample. Lane 2 represents an ML-1-transfected sample. The location of a 19.5 kd marker is indicated. FIG. 3B, Effect of ML-1 on IL-8 gene expression. Human primary bronchial epithelial cells (NHBE cells) were treated with different stimuli. The cells were harvested 4 hours after stimulation, and total RNA was extracted and subjected to RT-PCR using IL-8 and G3PDH primers. Lane 1, medium only; lane 2, cells treated with rIL-17 (100 ng/ml); lane 3, cells treated with purified His-tagged protein (Positope, 100 ng/ml); lane 4, cells treated with ML-1 (100 ng/ml). FIG. 3C, Effect of ML-1 on IL-8 protein production. NHBE cells were treated with the same stimuli used in FIG. 3B, and the supernatants were harvested 48 hours after stimulation.
Primary human bronchial epithelial (NHBE) cells were purchased from Clonetics (San Diego, Calif.) and cultured according to the manufacturer's instructions. The cells were treated with IL-17 (100 ng/ml), ML-1 (100 ng/ml), or a control His-tagged protein (Positope, 100 ng/ml; Invitrogen, Carlsbad, Calif.). The affinity-purified control His protein was dissolved in the same buffer as ML-1. Total RNA was extracted using Rneasy (Qiagen, Chatsworth, Calif.) from 1×10^6 cells 4 hours after stimulation or exchange of media. The protocol for cDNA synthesis was that described above. For PCR, the sequences of PCR primers were based on the human IL-8 cDNA sequence. The sequences of PCR primers for IL-8 were: forward, 5′-TCTGCAGCTCTGTGTGAAG-3′ (SEQ ID NO:14) and reverse, 5′-TAATTTCTGTGTTGGCGCA-3′ (SEQ ID NO:15). The amplification reaction was performed for 23 cycles with denaturation at 94° C. for 45 seconds, annealing at 56° C. for 45 seconds, and extension at 72° C. for 45 seconds PCR products were detected by ethidium bromide staining. The expected size for IL-8 was 154 basepairs. IL-8 protein levels in the collected supernatants were determined with a commercially available ELISA kit (Biosource, Camarillo, Calif.) according to the manufacturer's instructions.

B1: ML-1: new member of the IL-17 cytokine family, SEQ ID NO:2; His-tagged recombinant protein expressed in COS-7 cells and affinity purified (protein, listed as Homo sapiens)
chain: MKLDIGIINENQRVSMSRNIESRSTSPWNYTVTWDPNRYPSEVVQAQCRNLGCINAQGKEDISMNSVPIQQETLVVRRKHQGCSVSFQLEKVLVTVGCTCVTPVIHHVQ
modifications: His tag
With B1 the IL-6 production [1] was “time-dependent increase; also recorded: significantly induced”, the IL-8 protein expression ([2]; ELISA of supernatants, 48 hours) was “enhanced” and the IL-8 transcript expression ([2]; RT-PCR) was “enhanced”.
